Experimental data published in patent US20260008847A1 (ELPISCIENCE SUZHOU BIOPHARMA, published 2026).

Tests used:
[1] = target: Cell membrane human LILRB2 on human primary monocytes from healthy donors (human, UniProt Q8N423 22-597); test: cell-based or functional assay
[2] = target: T1, Human LILRB2 stably expressed on EL4 cells (EL4/LILRB2) (human, UniProt Q8N423 22-597); test: FACS on EL4/LILRB2 cells
T1 construct: also called EL4-LILRB2 cells; cell membrane human LILRB2

[3] = target: T2, 6×His-tagged human LILRB2 ECD recombinant protein (human, UniProt Q8N423 22-458, limits assumed); test: Octet, 1:1 model; column printed as 'ka (1/Ms)', heads of c4 and c5 are swapped
T2 construct: Bought protein; not shown: 6×His-tag
T2 sequence (Q8N423 22-458 limits assumed): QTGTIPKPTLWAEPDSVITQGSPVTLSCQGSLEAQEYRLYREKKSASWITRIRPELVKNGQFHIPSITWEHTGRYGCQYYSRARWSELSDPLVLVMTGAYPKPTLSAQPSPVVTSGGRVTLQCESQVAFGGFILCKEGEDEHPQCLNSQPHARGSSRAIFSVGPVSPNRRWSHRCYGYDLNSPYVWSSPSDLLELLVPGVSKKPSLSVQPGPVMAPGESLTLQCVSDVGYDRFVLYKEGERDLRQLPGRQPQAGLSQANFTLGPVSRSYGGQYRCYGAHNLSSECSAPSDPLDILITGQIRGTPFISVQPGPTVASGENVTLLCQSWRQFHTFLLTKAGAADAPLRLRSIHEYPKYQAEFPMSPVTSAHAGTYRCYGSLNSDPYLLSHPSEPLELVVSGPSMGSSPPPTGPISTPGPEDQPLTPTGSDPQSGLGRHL

Sequence of Cell membrane human LILRB2 on human primary monocytes from healthy donors (Q8N423 22-597): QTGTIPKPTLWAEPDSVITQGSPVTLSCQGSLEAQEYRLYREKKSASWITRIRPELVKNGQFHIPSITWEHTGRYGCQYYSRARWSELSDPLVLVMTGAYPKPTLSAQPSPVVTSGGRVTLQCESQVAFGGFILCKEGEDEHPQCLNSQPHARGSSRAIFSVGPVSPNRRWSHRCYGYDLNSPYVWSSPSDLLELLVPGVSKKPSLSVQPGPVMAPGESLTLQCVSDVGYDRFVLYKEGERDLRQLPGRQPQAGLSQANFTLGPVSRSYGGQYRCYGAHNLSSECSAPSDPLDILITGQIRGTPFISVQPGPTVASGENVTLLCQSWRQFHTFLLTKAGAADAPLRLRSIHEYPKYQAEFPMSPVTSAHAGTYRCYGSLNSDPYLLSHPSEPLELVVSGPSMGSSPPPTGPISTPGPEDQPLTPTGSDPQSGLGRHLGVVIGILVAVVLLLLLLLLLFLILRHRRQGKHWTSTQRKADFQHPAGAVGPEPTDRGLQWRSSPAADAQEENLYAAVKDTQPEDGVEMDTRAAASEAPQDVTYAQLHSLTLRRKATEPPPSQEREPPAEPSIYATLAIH
T1 sequence (Q8N423 22-597 limits assumed): as the sequence (Q8N423 22-597) above

- Relative cytokine level, CCL2/JE/MCP-1 (DC differentiation assay, Soluble antibody, Luminex) [1]: 2.36 fold of hIgG4 iso
- Relative cytokine level, CCL3/MIP-1 alpha (DC differentiation assay, Pre-coat antibody, Luminex) [1]: > 5 fold of hIgG4 iso
- Relative cytokine level, CCL3/MIP-1 alpha (DC differentiation assay, Soluble antibody, Luminex) [1]: 5.79 fold of hIgG4 iso
- Relative cytokine level, CCL20/MIP-3 alpha (DC differentiation assay, Pre-coat antibody, Luminex) [1]: 1.75 fold of hIgG4 iso
- Relative cytokine level, CCL20/MIP-3 alpha (DC differentiation assay, Soluble antibody, Luminex) [1]: 1.88 fold of hIgG4 iso
- Relative cytokine level, CCL22/MDC (DC differentiation assay, Pre-coat antibody, Luminex) [1]: 2.61 fold of hIgG4 iso
- Relative cytokine level, CCL22/MDC (DC differentiation assay, Soluble antibody, Luminex) [1]: 2.03 fold of hIgG4 iso
- Relative cytokine level, CCL23/MPIF-1 (DC differentiation assay, Pre-coat antibody, Luminex) [1]: 0.48 fold of hIgG4 iso
- Relative cytokine level, CCL23/MPIF-1 (DC differentiation assay, Soluble antibody, Luminex) [1]: 0.73 fold of hIgG4 iso
- Relative cytokine level, IFN-beta (DC differentiation assay, Pre-coat antibody, Luminex) [1]: 3.39 fold of hIgG4 iso
- Relative cytokine level, IFN-beta (DC differentiation assay, Soluble antibody, Luminex) [1]: 7.24 fold of hIgG4 iso
- Relative cytokine level, IL6 (DC differentiation assay, Soluble antibody, Luminex) [1]: 1.93 fold of hIgG4 iso
- Relative cytokine level, IL-1 alpha/IL-1F1 (DC differentiation assay, Pre-coat antibody, Luminex) [1]: 1.71 fold of hIgG4 iso
- Relative cytokine level, IL-1 alpha/IL-1F1 (DC differentiation assay, Soluble antibody, Luminex) [1]: 1.71 fold of hIgG4 iso
- Relative cytokine level, IL-6 (DC differentiation assay, Pre-coat antibody, Luminex) [1]: 1.61 fold of hIgG4 iso
- Relative cytokine level, IL-8/CXCL8 (DC differentiation assay, Soluble antibody, Luminex) [1]: 1.65 fold of hIgG4 iso
- Relative cytokine level, IL-10 (DC differentiation assay, Pre-coat antibody, Luminex) [1]: 2.16 fold of hIgG4 iso
- Relative cytokine level, IL-10 (DC differentiation assay, Soluble antibody, Luminex) [1]: 1.69 fold of hIgG4 iso
- Relative cytokine level, TNFα (DC differentiation assay, Pre-coat antibody, Luminex) [1]: 5.38 fold of hIgG4 iso
- Relative cytokine level, TNFα (DC differentiation assay, Soluble antibody, Luminex) [1]: 4.71 fold of hIgG4 iso
- Relative cytokine level, VEGF (DC differentiation assay, Pre-coat antibody, Luminex) [1]: 1.67 fold of hIgG4 iso
- Relative cytokine level, VEGF (DC differentiation assay, Soluble antibody, Luminex) [1]: 1.43 fold of hIgG4 iso
- EC50 [2]: 0.45 nM
- TOP MFI [2]: 45300 MFI
- koff [3]: 0.00119 s⁻¹
B1: 043c (antibody, V domains shown)
VH: QVQLQQSGAELAKPGASVKLSCKASGYTFTSYWMYWVKQRPGQGLEWIGHINPSSGYTKYNQKFKDKATLTADKSSSTAYMQLSSLTYEDSAVYYCARDPNWDNYWGQGTTLTVSS
VL: DIVMTQSHKFMSTSVGDRVSITCKASQDVSIAVAWYQQKPGQSPKLLIYSASYRYTGVPDRFTGSGSGTDFTFTISSVQAEDLAVYYCQQHYSTPYTFGGGTKLEIK
notes: Human IgG4 chimeric antibody with S228P mutation at the Fc region; also called chimeric antibody 043c; parental antibody 043c
